# Source: patent US8563513 (VAN ANDEL RESEARCH INSTITUTE, dated 2013)
# Where no end group is shown, it is not given here.
# T1: PTH1R in cell membranes, G protein-uncoupled conformation (R0) (UniProt Q03431 27-593, limits assumed)
# T1 construct: whole, on cells; Cell membranes, not intact cells; R0 state studied by including GTPγS in the reactions; also called G protein-uncoupled receptor
# T1 sequence (looked up): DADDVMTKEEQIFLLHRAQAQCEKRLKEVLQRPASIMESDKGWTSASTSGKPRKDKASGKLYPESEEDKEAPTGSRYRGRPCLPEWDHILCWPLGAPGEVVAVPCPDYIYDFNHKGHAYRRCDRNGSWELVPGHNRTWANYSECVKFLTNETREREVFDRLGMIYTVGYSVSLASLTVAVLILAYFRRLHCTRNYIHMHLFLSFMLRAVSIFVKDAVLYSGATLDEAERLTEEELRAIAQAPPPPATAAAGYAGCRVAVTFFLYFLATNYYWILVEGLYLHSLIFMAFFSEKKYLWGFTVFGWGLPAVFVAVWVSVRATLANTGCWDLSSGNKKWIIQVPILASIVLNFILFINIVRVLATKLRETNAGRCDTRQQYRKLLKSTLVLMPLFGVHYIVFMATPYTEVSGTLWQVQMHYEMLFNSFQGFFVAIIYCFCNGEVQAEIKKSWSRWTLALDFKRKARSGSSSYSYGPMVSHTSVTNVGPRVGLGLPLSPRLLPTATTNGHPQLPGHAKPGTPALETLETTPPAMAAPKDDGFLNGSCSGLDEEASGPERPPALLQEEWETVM
# T2: MBP-PTH1R ECD-(His)6 fusion protein (UniProt Q03431 29-187)
# T2 construct: range 29-187; Expressed in E. coli, disulfide shuffled in vitro; also called MBP-PTH1R ECD-H6; MBP-PTH1R ECD fusion protein
# T2 sequence: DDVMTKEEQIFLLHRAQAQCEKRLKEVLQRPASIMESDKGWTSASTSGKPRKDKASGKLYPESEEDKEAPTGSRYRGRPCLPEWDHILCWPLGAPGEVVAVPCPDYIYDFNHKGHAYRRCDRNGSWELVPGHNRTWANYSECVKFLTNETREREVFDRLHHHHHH
# T3: hPTH1R transiently expressed in COS-1 cells (human, UniProt Q03431 27-593)
# T3 sequence (looked up): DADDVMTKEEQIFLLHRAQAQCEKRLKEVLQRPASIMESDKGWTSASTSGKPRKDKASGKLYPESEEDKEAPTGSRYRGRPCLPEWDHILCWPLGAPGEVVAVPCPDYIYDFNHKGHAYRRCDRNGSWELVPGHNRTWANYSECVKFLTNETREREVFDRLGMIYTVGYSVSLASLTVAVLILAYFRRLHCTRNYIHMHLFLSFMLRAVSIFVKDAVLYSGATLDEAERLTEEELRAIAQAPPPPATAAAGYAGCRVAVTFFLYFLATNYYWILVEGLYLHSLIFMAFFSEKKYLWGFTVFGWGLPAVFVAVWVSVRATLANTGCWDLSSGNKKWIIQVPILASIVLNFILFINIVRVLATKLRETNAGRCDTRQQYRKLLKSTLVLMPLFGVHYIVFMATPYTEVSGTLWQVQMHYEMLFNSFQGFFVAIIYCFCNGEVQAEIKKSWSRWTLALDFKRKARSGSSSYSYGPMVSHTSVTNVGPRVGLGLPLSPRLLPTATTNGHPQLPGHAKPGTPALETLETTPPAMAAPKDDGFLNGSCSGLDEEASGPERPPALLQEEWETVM
# B1: PTHrP(12-34)NH2 (peptide)
# peptide: GKSIQDLRRRFFLHHLIAEIHTA-NH2
# notes: also called C-terminally amidated 12-34 fragment of PTHrP
# B2: PTHrP(12-34)NH2 [L27′K] (peptide)
# peptide: GKSIQDLRRRFFLHHKIAEIHTA-NH2
# notes: Hybrid PTH/PTHrP peptide in the PTHrP(12-34)NH2 scaffold
# B3: PTHrP(12-34)NH2 [L27′K/I31′V] (peptide)
# peptide: GKSIQDLRRRFFLHHKIAEVHTA-NH2
# notes: as for B2
# B4: PTHrP(12-34)NH2 [I31′V] (peptide)
# peptide: GKSIQDLRRRFFLHHLIAEVHTA-NH2
# notes: as for B2
# B5: PTHrP(12-34)NH2 [L27′K/I28′L] (peptide)
# peptide: GKSIQDLRRRFFLHHKLAEIHTA-NH2
# notes: as for B2
# B6: PTHrP(12-34)NH2 [I28′L] (peptide)
# peptide: GKSIQDLRRRFFLHHLLAEIHTA-NH2
# notes: as for B2
# B7: PTHrP(12-34)NH2 [F23′W] (peptide)
# peptide: GKSIQDLRRRFWLHHLIAEIHTA-NH2
# notes: as for B2
# Target: T1, PTH1R in cell membranes, G …
# Experiment: ratio of IC50 at R0 to IC50 at RG, cell membranes
row,Binder,RO/RG [fold]
1,AVSEHQLLHDKGKSIQDLRRRFWLHHKLAEVHTA-NH2 [PTHrP(1-34)NH2 [F23′W/L27′K/I28′L/I31′V]],586
2,SVSEIQLMHNLGKHLNSMERVEWLRKLLQDIHNF-NH2 [PTH(1-34)NH2 [K27L/V31I]],36.8
3,SVSEIQLMHNLGKHLNSMERVEFLRKLIQDIHNF-NH2 [PTH(1-34)NH2 [W23F/K27L/L28I/V31I]],68
4,SVSEIQLMHNLGKHLNSMERVEFLRKKLQDIHNF-NH2 (also called PTH(W23′F/V31′I)) [PTH(1-34)NH2 [W23′F/V31′I]],386
5,SVSEIQLMHNLGKHLNSMERVEFLRKLLQDVHNF-NH2 [PTH(1-34)NH2 [W23F/K27L]],26.4
6,SVSEIQLMHNLGKHLNSMERVEWLRKKLQDIHNF-NH2 [PTH(1-34)NH2 [V31I]],110
7,SVSEIQLMHNLGKHLNSMERVEWLRKLLQDVHNF-NH2 (also called 07-12-12-07-SBSL) [PTH(1-34)[K27L]NH2],11.9
8,SVSEIQLMHNLGKHLNSMERVEWLRKKIQDIHNF-NH2 [PTH(1-34)NH2 [L28I/V31I]],135
9,SVSEIQLMHNLGKHLNSMERVEWLRKKIQDVHNF-NH2 [PTH(1-34)NH2 [L28I]],45
10,SVSEIQLMHNLGKHLNSMERVEFLRKKIQDVHNF-NH2 [PTH(1-34)NH2 [W23F/L28I]],190
11,SVSEIQLMHNLGKHLNSMERVEFLRKKLQDVHNF-NH2 [PTH(1-34)NH2 [W23F]],59

# Target: T2, MBP-PTH1R ECD-(His)6 fusion protein
# Experiment: AlphaScreen competition; competitor titrated against biotin-PTH(7-34)NH2 (23 nM) on MBP-PTH1R ECD (23 nM) [panel A]
# Experimental: (§1) ECD-peptide binding assays. The binding of peptides to the MBP-PTH1R ECD-H6 fusion protein was assessed using an AlphaScreen assay (Perkin-Elmer). […] The pre-coupling reactions were mixed, un-labeled competitor peptides were added as indicated, and the reactions were incubated 4 to 5 hrs to reach equilibrium. Photon counts were recorded in 384-well optiplates using an Envision 2104 plate reader (Perkin-Elmer). Prism 5.0 software (GraphPad Software, San Diego) was used to fit the data to a fixed-slope dose-response inhibition equation for determination of IC50 values. Real-time analysis of the binding of peptides to the isolated PTH1R ECD using the Octet Red system (ForteBio) was performed as described in below.
row,Binder,IC50 (read off the curve) [nM]
1,GKHLNSMERVEWLRKKLQDVHNF-NH2 [PTH(12-34)NH2],~800

# Target: T2, MBP-PTH1R ECD-(His)6 fusion protein
# Experiment: AlphaScreen competition against biotin-PTH(7-34)NH2 (23 nM) for MBP-PTH1R ECD-H6 (23 nM)
# Experimental: as §1
row,Binder,IC50 [nM]
1,GKHLNSMERVEWLRKKLQDVHNF-NH2 [PTH(12-34)NH2],~1000
2,B1,~2000
3,GKSIQDLRRRFFLHHLIAEIHTA-OH (Free C-terminal carboxylic acid) [PTHrP(12-34)OH],~2000

# Target: T1, PTH1R in cell membranes, G …
# Experiment: competition binding, PTH1R in cell membranes, R0 state (GTPγS), n = 3
Binder,IC50 [nM],IC50 Log M [Log M]
AVSEHQLLHDKGKSIQDLRRRFWLHHKLAEVHTA-NH2 [PTHrP(1-34)NH2 [F23′W/L27′K/I28′L/I31′V]],41,-7.4
SVSEIQLMHNLGKHLNSMERVEWLRKLLQDIHNF-NH2 [PTH(1-34)NH2 [K27L/V31I]],25,-7.6
SVSEIQLMHNLGKHLNSMERVEFLRKLIQDIHNF-NH2 [PTH(1-34)NH2 [W23F/K27L/L28I/V31I]],53,-7.3
SVSEIQLMHNLGKHLNSMERVEFLRKKLQDIHNF-NH2 (also called PTH(W23′F/V31′I)) [PTH(1-34)NH2 [W23′F/V31′I]],81,-7.1
SVSEIQLMHNLGKHLNSMERVEFLRKLLQDVHNF-NH2 [PTH(1-34)NH2 [W23F/K27L]],8.7,-8.1
SVSEIQLMHNLGKHLNSMERVEWLRKKLQDIHNF-NH2 [PTH(1-34)NH2 [V31I]],34,-7.5
SVSEIQLMHNLGKHLNSMERVEWLRKLLQDVHNF-NH2 (also called 07-12-12-07-SBSL) [PTH(1-34)[K27L]NH2],6.4,-8.2
SVSEIQLMHNLGKHLNSMERVEWLRKKIQDIHNF-NH2 [PTH(1-34)NH2 [L28I/V31I]],42,-7.4
SVSEIQLMHNLGKHLNSMERVEWLRKKIQDVHNF-NH2 [PTH(1-34)NH2 [L28I]],4.5,-8.4
SVSEIQLMHNLGKHLNSMERVEFLRKKIQDVHNF-NH2 [PTH(1-34)NH2 [W23F/L28I]],38,-7.4
SVSEIQLMHNLGKHLNSMERVEFLRKKLQDVHNF-NH2 [PTH(1-34)NH2 [W23F]],13.5,-7.9

# Target: T2, MBP-PTH1R ECD-(His)6 fusion protein
# Experiment: AlphaScreen competition; competitor titrated against biotin-PTH(7-34)NH2 (23 nM) on MBP-PTH1R ECD (23 nM) [panel B]
# Experimental: as §1
row,Binder,IC50 (read off the curve) [nM]
1,B1,~1000
2,GKSIQDLRRRFFLHHLIAEIHTA-OH (Free C-terminal carboxylic acid) [PTHrP(12-34)OH],~2000

# Target: T3, hPTH1R transiently expressed in COS-1 …
# Experiment: cell-based or functional assay
Binder,"EC50, cAMP accumulation dose-response [nM]",maximal cAMP level relative to wt peptide [%]
SVSEIQLMHNLGKHLNSMERVEFLRKKLQDIHNF-NH2 (also called PTH(W23′F/V31′I)) [PTH(1-34)NH2 [W23′F/V31′I]],0.0415,~80

# Target: T4, PTH1R in cell membranes, G protein-coupled conformation (RG) (UniProt Q03431 27-593)
# T4 construct: whole, on cells; Cell membranes, not intact cells; RG state studied by co-expressing the receptor with dominant negative Gαs; also called G protein-coupled receptor
# Experiment: competition binding, PTH1R in cell membranes, RG state (dominant negative Gαs), n = 3
Binder,IC50 [nM],IC50 Log M [Log M]
AVSEHQLLHDKGKSIQDLRRRFWLHHKLAEVHTA-NH2 [PTHrP(1-34)NH2 [F23′W/L27′K/I28′L/I31′V]],0.07,-10.1
SVSEIQLMHNLGKHLNSMERVEWLRKLLQDIHNF-NH2 [PTH(1-34)NH2 [K27L/V31I]],0.68,-9.3
SVSEIQLMHNLGKHLNSMERVEFLRKLIQDIHNF-NH2 [PTH(1-34)NH2 [W23F/K27L/L28I/V31I]],0.78,-9.2
SVSEIQLMHNLGKHLNSMERVEFLRKKLQDIHNF-NH2 (also called PTH(W23′F/V31′I)) [PTH(1-34)NH2 [W23′F/V31′I]],0.21,-9.7
SVSEIQLMHNLGKHLNSMERVEFLRKLLQDVHNF-NH2 [PTH(1-34)NH2 [W23F/K27L]],0.33,-9.6
SVSEIQLMHNLGKHLNSMERVEWLRKKLQDIHNF-NH2 [PTH(1-34)NH2 [V31I]],0.31,-9.6
SVSEIQLMHNLGKHLNSMERVEWLRKLLQDVHNF-NH2 (also called 07-12-12-07-SBSL) [PTH(1-34)[K27L]NH2],0.54,-9.3
SVSEIQLMHNLGKHLNSMERVEWLRKKIQDIHNF-NH2 [PTH(1-34)NH2 [L28I/V31I]],0.31,-9.6
SVSEIQLMHNLGKHLNSMERVEWLRKKIQDVHNF-NH2 [PTH(1-34)NH2 [L28I]],0.1,-10
SVSEIQLMHNLGKHLNSMERVEFLRKKIQDVHNF-NH2 [PTH(1-34)NH2 [W23F/L28I]],0.2,-9.7
SVSEIQLMHNLGKHLNSMERVEFLRKKLQDVHNF-NH2 [PTH(1-34)NH2 [W23F]],0.23,-9.7

# Target: T2, MBP-PTH1R ECD-(His)6 fusion protein
# Experiment: AlphaScreen single point competition; peptide 20 µM against biotin-PTH(7-34)NH2 (23 nM) on MBP-PTH1R-ECD (23 nM) [panel B]
# Experimental: as §1
row,Binder,binding result
1,B2,binds
2,B3,binds
3,B4,binds
4,B5,binds
5,B6,binds
6,B7,binds
